Bridges are numbered along the chain shown (N, C = ends). Where no end group is shown, it is not given here. fluorescein = fluorescein fluorescent label attached to the peptide
Molecular target: T1, human c-Met (human, UniProt P08581 25-1390)
T1 construct: whole, on cells; Endogenous receptor on human cell lines; alpha and beta sub-units come from one precursor; also called c-Met protein; HGF receptor
Experiment: confocal fluorescence microscopy on human c-Met expressing SNU-638 cells
Description: To human c-Met expressing cells (human SNU-638 cells) or human c-Met non-expressing cells (human SNU-216 cells) cultured on a glass-bottom dish were added a RPMI1640 medium containing 1 mg/L of Hoechst 33342, a nuclear staining reagent, an anti-human c-Met antibody, and 1 uM of L5-2-fluorescein, D4-3-fluorescein, D5-4-fluorescein, D4-3NMe-fluorescein, or D4-3scr-fluorescein and the resulting mixture was incubated in 5% CO₂ at 37° C. for 5 minutes. Then, a RPMI1640 medium containing an HRP-anti-rat secondary antibody and 1 μM of L5-2-fluorescein, D4-3-fluorescein, D5-4-fluorescein, D4-3NMe-fluorescein, or D4-3scr-fluorescein was added and the resulting mixture was incubated in 5% CO₂ at 37° C. for 5 minutes.
The cells were washed three times with a D-MEM medium and were microscopically observed in a new RPMI1640 medium. The localization of the peptide was observed using a confocal fluorescence microscope for the microscopic observation.

T1 sequence (P08581 25-1390): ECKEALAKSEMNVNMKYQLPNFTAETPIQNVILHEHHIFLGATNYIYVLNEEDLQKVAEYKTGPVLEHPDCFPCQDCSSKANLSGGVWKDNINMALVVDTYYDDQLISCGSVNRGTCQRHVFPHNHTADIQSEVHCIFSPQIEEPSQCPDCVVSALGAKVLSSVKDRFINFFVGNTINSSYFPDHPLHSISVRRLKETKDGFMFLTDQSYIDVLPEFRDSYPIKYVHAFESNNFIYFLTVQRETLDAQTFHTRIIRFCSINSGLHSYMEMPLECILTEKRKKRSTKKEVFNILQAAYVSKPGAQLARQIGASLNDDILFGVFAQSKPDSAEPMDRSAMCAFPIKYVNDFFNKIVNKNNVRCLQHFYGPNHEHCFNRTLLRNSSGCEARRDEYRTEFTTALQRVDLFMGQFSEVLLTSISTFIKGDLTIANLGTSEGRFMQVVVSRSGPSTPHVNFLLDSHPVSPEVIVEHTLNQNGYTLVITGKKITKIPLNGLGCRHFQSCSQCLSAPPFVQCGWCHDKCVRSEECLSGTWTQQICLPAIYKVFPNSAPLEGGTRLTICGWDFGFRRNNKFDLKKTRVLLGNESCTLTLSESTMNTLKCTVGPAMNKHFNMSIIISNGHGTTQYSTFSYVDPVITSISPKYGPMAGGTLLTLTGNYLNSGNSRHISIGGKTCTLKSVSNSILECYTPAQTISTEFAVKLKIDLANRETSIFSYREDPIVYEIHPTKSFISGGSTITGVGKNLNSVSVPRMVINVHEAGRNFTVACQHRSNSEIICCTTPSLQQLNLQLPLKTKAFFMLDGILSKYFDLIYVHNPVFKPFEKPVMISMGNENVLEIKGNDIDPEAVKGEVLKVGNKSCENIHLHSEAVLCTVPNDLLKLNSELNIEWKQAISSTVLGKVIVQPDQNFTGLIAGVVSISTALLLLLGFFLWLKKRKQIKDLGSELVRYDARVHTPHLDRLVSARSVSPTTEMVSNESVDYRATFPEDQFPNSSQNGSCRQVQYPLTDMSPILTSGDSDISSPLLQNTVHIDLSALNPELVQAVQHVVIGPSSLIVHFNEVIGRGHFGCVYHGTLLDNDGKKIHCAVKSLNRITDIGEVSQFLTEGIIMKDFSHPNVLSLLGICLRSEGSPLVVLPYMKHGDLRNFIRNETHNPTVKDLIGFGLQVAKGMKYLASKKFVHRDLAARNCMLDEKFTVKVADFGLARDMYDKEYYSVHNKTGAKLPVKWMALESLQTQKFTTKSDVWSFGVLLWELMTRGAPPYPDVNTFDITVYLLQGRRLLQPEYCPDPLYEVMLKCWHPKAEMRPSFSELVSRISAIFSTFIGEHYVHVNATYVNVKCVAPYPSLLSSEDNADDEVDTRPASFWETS

binding result: no binding (tested: 1 uM)
B1: D4-3scr-fluorescein (peptide)
peptide: {CH2CO}-YERVNHLFRNQTWDRCGK(fluorescein)
modifications: thioether N-16
notes: Negative control

Reference: patent US20160237119A1 (UNIVERSITY OF TOKYO, published 2016)
